Values joined by “and” are separate entries in the source; they are usually repeats but may differ in a detail not shown here. Equal entries are not always repeated.

To fix the notation:
B1: B7-H4 antibody 0059 (antibody, human IgG1, kappa, V domains shown)
VH: EVQLLESGGGLVQPGGSLRLSCAASGFTFSSYALSWVRQAPGKGLEWVSTINVGGVDTNYAGSVKGRFTISRDNPKNTLCLQMNSLRAEDTAVYHCAKARITMVRGVIIPLFDYWGQGTLVTVAS
VL: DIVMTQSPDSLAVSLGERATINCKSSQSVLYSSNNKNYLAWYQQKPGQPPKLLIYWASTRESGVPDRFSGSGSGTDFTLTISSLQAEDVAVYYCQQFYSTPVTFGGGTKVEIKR
notes: also called 47A1
B2: B7-H4 antibody 1080 (antibody, human IgG1, kappa, V domains shown)
VH: EVQLVESGGGLVQPGGSLRLSCAVSGGSFSGYYWNWIRQPPGKGLEWIGEINHSGSATYNPSLKSRVTISVDTAKNSLYLQMNSLRAEDTAVYYCARGLYNWNVDHWGQGTLVTVSS
VL: DIQMTQSPSSLSASVGDRVTITCRASQGIRNDLGWYQQKPGKAPKRLIYAASSLQSGVPSRFSGSGSGTDFTLTISSLQPEDFATYYCLQHNAYPRTFGGGTKVEIKR
B3: B7-H4 antibody 0542 (antibody, human IgG1, kappa, V domains shown)
VH: EVQLVESGGGLVQPGGSLRLSCAASGGSFSGYYWNWIRQPPGKGLEWIGEIDHQGSTKYNPSLKSRVTISVDTAKNSLYLQMNSLRAEDTAVYYCARELYNWNVDHWGQGTLVTVSS
VL: DIQMTQSPSSLSASVGDRVTITCRASQGIRNDLGWYQQKPGKAPKRLIYAASSLQSGVPSRFSGSGSGTDFTLTISSLQPEDFATYYCLQHSSYPRTFGGGTKVEIKR
B4: B7-H4 antibody 0380 (antibody, human IgG1, kappa, V domains shown)
VH: EVQLVESGGGLVQPGGSLRLSCAVSGGSFSGYYWNWVRQAPGKGLEWIGEINHSGSATYNPSLKSRFTISVDTAKNSFYLQMNSLRAEDTAVYYCARELYNWNVDHWGQGTLVTVSS
VL: DIQMTQSPSSLSASVGDRVTITCRASQGIRNDLGWYQQKPGKAPKRLIYAASSLQSGVPSRFSGSGSGTEFTLTISSLQPEDFATYYCLQHNSYPRTFGGGTKVEIKR
B5: B7-H4 antibody 0544 (antibody, human IgG1, kappa, V domains shown)
VH: EVQLVESGGGLVQPGGSLRLSCAASGGSFSGYYWNWIRQPPGKGLEWIGEIDHQGSTKYNPSLKSRVTISVDTAKNSLYLQMNSLRAEDTAVYYCARGLYNWNVDHWGQGTLVTVSS
VL: DIQMTQSPSSLSASVGDRVTITCRASQGIRNDLGWYQQKPGKAPKRLIYAASSLQSGVPSRFSGSGSGTDFTLTISSLQPEDFATYYCLQHSSYPRTFGGGTKVEIKR
B6: B7-H4 antibody 0911 (antibody, human IgG1, kappa, V domains shown)
VH: EVQLVESGGGLVQPGGSLRLSCAVSGGSFSGYYWNWIRQPPGKGLEWIGEINHSGSATYNPSLKSRVTISVDTAKNSLYLQMNSLRAEDTAVYYCARGLYNWNVDHWGQGTLVTVSS
VL: DIQMTQSPSSLSASVGDRVTITCRASQGIRNDLGWYQQKPGKAPKRLIYAASSLQSGVPSRFSGSGSGTDFTLTISSLQPEDFATYYCLQHSSYPRTFGGGTKVEIKR
B7: B7-H4 antibody 0934 (antibody, human IgG1, kappa, V domains shown)
VH: EVQLVESGGGLVQPGGSLRLSCAVSGGSFSGYYWNWVRQAPGKGLEWIGEINHSGSATYNPSLKSRVTISVDTAKNSLYLQMNSLRAEDTAVYYCARGLYNWNVDHWGQGTLVTVSS
VL: DIQMTQSPSSLSASVGDRVTITCRASQGIRNDLGWYQQKPGKAPKRLIYAASSLQSGVPSRFSGSGSGTDFTLTISSLQPEDFATYYCLQHSSYPRTFGGGTKVEIKR
B8: B7-H4 antibody 0538 (antibody, human IgG1, kappa, V domains shown)
VH: EVQLVESGGGLVQPGGSLRLSCAASGGSFSGYYWNWIRQPPGKGLEWIGEIDHQGSTKYNPSLKSRVTISVDTAKNSLYLQMNSLRAEDTAVYYCARGLYNWNVDHWGQGTLVTVSS
VL: DIQMTQSPSSLSASVGDRVTITCRASQGIRNDLGWYQQKPGKAPKRLIYAASSLQSGVPSRFSGSGSGTDFTLTISSLQPEDFATYYCLQHNAYPRTFGGGTKVEIKR
B9: B7-H4 antibody 0362 (antibody, human IgG1, kappa, V domains shown)
VH: EVQLVESGGGLVQPGGSLRLSCAVSGGSFSGYYWNWVRQAPGKGLEWIGEIDHQGSTKYNPSLKSRFTISVDTAKNSFYLQMNSLRAEDTAVYYCARGLYNWNVDHWGQGTLVTVSS
VL: DIQMTQSPSSLSASVGDRVTITCRASQGIRNDLGWYQQKPGKAPKRLIYAASSLQSGVPSRFSGSGSGTEFTLTISSLQPEDFATYYCLQHNSYPRTFGGGTKVEIKR
B10: B7-H4 antibody 0364 (antibody, human IgG1, kappa, V domains shown)
VH: EVQLVESGGGLVQPGGSLRLSCAVSGGSFSGYYWNWVRQAPGKGLEWIGEINHSGSATYNPSLKSRVTISVDTAKNSFYLQMNSLRAEDTAVYYCARGLYNWNVDHWGQGTLVTVSS
VL: DIQMTQSPSSLSASVGDRVTITCRASQGIRNDLGWYQQKPGKAPKRLIYAASSLQSGVPSRFSGSGSGTEFTLTISSLQPEDFATYYCLQHNSYPRTFGGGTKVEIKR
B11: B7-H4 antibody 0368 (antibody, human IgG1, kappa, V domains shown)
VH: EVQLVESGGGLVQPGGSLRLSCAASGGSFSGYYWNWVRQAPGKGLEWVAEINHSGSATYNPSLKSRFTISRDTAKNSLYLQMNSLRAEDTAVYYCARGLYNWNVDHWGQGTLVTVSS
VL: DIQMTQSPSSLSASVGDRVTITCRASQGIRNDLGWYQQKPGKAPKRLIYAASSLQSGVPSRFSGSGSGTEFTLTISSLQPEDFATYYCLQHNSYPRTFGGGTKVEIKR
B12: B7-H4 antibody 0546 (antibody, human IgG1, kappa, V domains shown)
VH: EVQLVESGGGLVQPGGSLRLSCAVSGGSFSGYYWNWIRQPPGKGLEWIGEIDHQGSTKYNPSLKSRVTISVDTAKNSLYLQMNSLRAEDTAVYYCARELYNWNVDHWGQGTLVTVSS
VL: DIQMTQSPSSLSASVGDRVTITCRASQGIRNDLGWYQQKPGKAPKRLIYAASSLQSGVPSRFSGSGSGTDFTLTISSLQPEDFATYYCLQHSSYPRTFGGGTKVEIKR
B13: B7-H4 antibody 0350 (antibody, human IgG1, kappa, V domains shown)
VH: EVQLVESGGGLVQPGGSLRLSCAVSGGSFSGYYWSWVRQPPGKGLEWIGEINHSGSATYNPSLKSRFTISVDTAKNSFYLQMNSLRAEDTAVYYCARGLYNWNVDHWGQGTLVTVSS
VL: DIQMTQSPSSLSASVGDRVTITCRASQGIRNDLGWYQQKPGKAPKRLIYAASSLQSGVPSRFSGSGSGTEFTLTISSLQPEDFATYYCLQHNSYPRTFGGGTKVEIKR
B14: B7-H4 antibody 0540 (antibody, human IgG1, kappa, V domains shown)
VH: EVQLVESGGGLVQPGGSLRLSCAVSGGSFSGYYWNWIRQPPGKGLEWIGEIDHQGSTKYNPSLKSRVTISVDTAKNSLYLQMNSLRAEDTAVYYCARELYNWNVDHWGQGTLVTVSS
VL: DIQMTQSPSSLSASVGDRVTITCRASQGIRNDLGWYQQKPGKAPKRLIYAASSLQSGVPSRFSGSGSGTDFTLTISSLQPEDFATYYCLQHNAYPRTFGGGTKVEIKR
B15: B7-H4 antibody 0376 (antibody, human IgG1, kappa, V domains shown)
VH: EVQLVESGGGLVQPGGSLRLSCAVSGGSFSGYYWNWVRQAPGKGLEWIGEINHSGSATYVDSVKGRFTISRDTAKNSFYLQMNSLRAEDTAVYYCARGLYNWNVDHWGQGTLVTVSS
VL: DIQMTQSPSSLSASVGDRVTITCRASQGIRNDLGWYQQKPGKAPKRLIYAASSLQSGVPSRFSGSGSGTEFTLTISSLQPEDFATYYCLQHNSYPRTFGGGTKVEIKR
B16: B7-H4 antibody 0352 (antibody, human IgG1, kappa, V domains shown)
VH: EVQLVESGGGLVQPGGSLRLSCAVSGGSFSGYYWNWIRQPPGKGLEWIGEINHSGSATYNPSLKSRFTISVDTAKNSFYLQMNSLRAEDTAVYYCARGLYNWNVDHWGQGTLVTVSS
VL: DIQMTQSPSSLSASVGDRVTITCRASQGIRNDLGWYQQKPGKAPKRLIYAASSLQSGVPSRFSGSGSGTEFTLTISSLQPEDFATYYCLQHNSYPRTFGGGTKVEIKR
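Throughout, for IC50: tested antibody premixed 1:1 with biotinylated parental antibody, 2 h at room temperature on coated ECD, bound biotin detected via streptavidin-HRP, absorbance read at 450 nm.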

One test concerns the target T1, human B7-H4 extracellular domain (human, UniProt Q7Z7D3 29-258).
T1 construct: For SPR it says only human B7-H4 ECD; also called Hu B7-H4 ECD; huB7-H4 ECD
T1 sequence: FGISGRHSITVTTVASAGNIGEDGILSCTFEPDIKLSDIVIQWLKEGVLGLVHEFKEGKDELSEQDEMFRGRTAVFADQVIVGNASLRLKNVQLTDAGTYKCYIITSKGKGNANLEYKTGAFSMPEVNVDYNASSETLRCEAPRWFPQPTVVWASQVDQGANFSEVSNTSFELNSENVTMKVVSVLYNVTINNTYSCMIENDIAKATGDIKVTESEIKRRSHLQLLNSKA
Briefly: SPR Biacore 8K 25 C; mAb captured on anti-human Fc, huB7-H4 ECD analyte, 1:1 fit.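 Note: antibodies tested as IgG1, running buffer HBS-EP+ at pH 7.4, rate constants and affinity from a 1:1 Langmuir model fit.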
In turn, B1 came in with a Kd of 0.68 nM, a koff of 0.000389 s⁻¹ and a kon of 568000 M⁻¹ s⁻¹.

A further test addresses T1, human B7-H4 extracellular domain. Briefly: competition ELISA on coated huB7-H4 ECD; competitor biotinylated 0052 (by series, not given). (In general: In an ELISA, binding on a coated surface is turned into a signal by an enzyme label.)
In the case of B2, the IC50 was 1.4 nM.

The molecule B3 showed an IC50 of 33.8 nM.

For B4, the half-inhibitory concentration (IC50) is 13.6 nM and 17.8 nM.

As for B5, the IC50 worked out at 35.5 nM.

In turn, B6 displayed an IC50 of 2.5 nM.

With B7, the IC50 was 3.6 nM.

B8: the IC50 was found to be 21.9 nM.

As for B9, the IC50 was 13.5 nM and 17.1 nM.

Regarding B10, the IC50 is 9.13 nM and 10.8 nM.

Regarding B11, the IC50 is 8.49 nM and 8.3 nM.

B12 displayed an IC50 of 42.3 nM.

B13 registered an IC50 of 17.6 nM.

In the case of B14, the IC50 is 30.1 nM.

On to B15, for which the 50% inhibitory concentration (IC50) turned out to be 12.4 nM.

Regarding B16, the IC50 was 15.8 nM and 12.9 nM.

The Kd is the equilibrium constant for the complex coming apart. High values mean weaker binding, low ones tighter binding. As usually defined, the koff is the first-order rate constant of dissociation. Higher therefore signals fast dissociation. As a reminder, the kon is the rate constant with which the complex forms. Broadly, the IC50 is the concentration that inhibits the measured activity by half. High values mean weaker potency in that assay, low ones greater potency in that assay.
